The results in this text go back to patent publication US20210246218A1 (LYVGEN BIOPHARMA SUZHOU, published 2021).

One assay concerns the target T1, mouse CD137 protein (mouse, UniProt P20334 24-187).
T1 construct: Coated on ELISA plates; also called Rodent CD137; murine CD137
T1 sequence (looked up): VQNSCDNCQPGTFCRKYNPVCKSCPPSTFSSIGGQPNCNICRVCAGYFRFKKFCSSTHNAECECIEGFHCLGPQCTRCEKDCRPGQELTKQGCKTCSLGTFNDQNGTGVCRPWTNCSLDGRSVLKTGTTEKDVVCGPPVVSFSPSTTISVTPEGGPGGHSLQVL
Kind of assay: ELISA, protein coated at 1 µg/mL. As for the experimental part: (§1) The plate was decanted and washed once; assay diluent was added at 200 μL/well. After a 1-hour incubation at room temperature, the plate was washed with PBST one time. […] These samples were added into the plate 50 μL/well. The plate was incubated 1 hour at room temperature and then washed three times with PBST. Goat anti-human IgG-H+L HRP-conjugated at 1:100,000 dilution or goat anti-mouse IgG (H+L) secondary antibody, HRP, at 1:50,000 dilution was added to the plate at 100 μL/well. The plate was incubated 1 hour at room temperature followed by washing with PBST four times. The TMB substrate solution was added 100 μL/well. The color was permitted to develop for 15 minutes and then 100 μL/well 2N H₂SO₄ was added to terminate the reaction. Absorbance at 450 nm and 620 nm was determined by a Tecan F200 Pro reader.
In general terms: An ELISA detects its analyte on a solid surface through an enzyme-linked reagent.

The target of a further assay is human VISTA protein (human, UniProt Q9H7M9 33-194). Kind of assay: ELISA, protein coated at 1 µg/mL. The method, then:
as §1

The target in a further assay is T2, human B7-H3 protein (human, UniProt Q5ZPR3 29-461, limits assumed).
T2 sequence (looked up): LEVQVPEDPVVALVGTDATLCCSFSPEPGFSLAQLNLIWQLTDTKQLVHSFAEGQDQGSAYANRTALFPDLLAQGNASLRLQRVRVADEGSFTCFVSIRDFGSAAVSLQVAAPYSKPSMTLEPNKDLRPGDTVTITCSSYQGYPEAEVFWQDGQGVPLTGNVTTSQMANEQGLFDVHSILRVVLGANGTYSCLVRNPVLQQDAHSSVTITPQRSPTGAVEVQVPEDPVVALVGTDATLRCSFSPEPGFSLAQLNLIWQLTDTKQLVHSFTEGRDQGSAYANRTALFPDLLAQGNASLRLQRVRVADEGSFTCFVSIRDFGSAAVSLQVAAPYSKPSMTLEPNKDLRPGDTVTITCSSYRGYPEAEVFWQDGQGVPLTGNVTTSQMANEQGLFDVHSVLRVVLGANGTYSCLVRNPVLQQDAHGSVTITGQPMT
Kind of assay: ELISA, protein coated at 1 µg/mL. As for the experimental part:
as §1

The target of a further assay is T3, human GITR protein (human, UniProt Q9Y5U5 26-161).
T3 sequence (looked up): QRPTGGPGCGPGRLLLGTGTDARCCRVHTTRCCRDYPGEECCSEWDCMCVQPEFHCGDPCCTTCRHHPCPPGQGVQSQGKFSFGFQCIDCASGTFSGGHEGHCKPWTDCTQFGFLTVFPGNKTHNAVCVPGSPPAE
Kind of assay: ELISA, protein coated at 1 µg/mL. The method, then:
as §1

The target of a further assay is human CD40 protein (human, UniProt P25942 21-193). Kind of assay: ELISA, protein coated at 1 µg/mL. The method, then:
as §1

The target of the next assay is T4, human CD20 protein (human, UniProt P11836 1-297, limits assumed).
T4 sequence (looked up): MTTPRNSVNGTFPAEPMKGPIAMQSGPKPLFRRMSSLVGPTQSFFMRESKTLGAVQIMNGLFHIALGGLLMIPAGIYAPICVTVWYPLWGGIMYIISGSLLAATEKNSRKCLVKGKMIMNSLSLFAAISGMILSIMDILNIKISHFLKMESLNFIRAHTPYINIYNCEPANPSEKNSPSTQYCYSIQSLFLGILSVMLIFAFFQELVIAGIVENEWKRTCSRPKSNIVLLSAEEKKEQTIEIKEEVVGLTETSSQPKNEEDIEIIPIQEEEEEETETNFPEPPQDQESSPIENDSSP
In words: ELISA, protein coated at 1 µg/mL. The method, then:
as §1

A further assay has as its target T5, human CD19 protein (human, UniProt P15391 20-291).
T5 sequence (looked up): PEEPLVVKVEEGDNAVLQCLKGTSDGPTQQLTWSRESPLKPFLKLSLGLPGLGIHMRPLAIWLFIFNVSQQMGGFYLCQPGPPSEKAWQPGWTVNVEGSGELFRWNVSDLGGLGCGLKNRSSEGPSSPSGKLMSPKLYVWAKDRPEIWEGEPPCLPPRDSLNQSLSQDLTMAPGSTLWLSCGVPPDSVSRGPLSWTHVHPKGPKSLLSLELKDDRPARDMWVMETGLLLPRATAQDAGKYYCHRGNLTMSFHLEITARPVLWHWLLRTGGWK
In words: ELISA, protein coated at 1 µg/mL. As for the experimental part:
as §1

The target in a further assay is human CD27 protein (human, UniProt P26842 21-192, limits assumed). In words: ELISA, protein coated at 1 µg/mL. As for the experimental part: as §1
Sequence of human CD27 protein (P26842 21-192 limits assumed): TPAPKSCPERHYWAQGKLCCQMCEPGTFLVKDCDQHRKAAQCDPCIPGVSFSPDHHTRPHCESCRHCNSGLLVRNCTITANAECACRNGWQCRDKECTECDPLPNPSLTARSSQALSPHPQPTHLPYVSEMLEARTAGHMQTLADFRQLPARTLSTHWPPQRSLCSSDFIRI
The next assay concerns the target T6, human LTBR protein (human, UniProt P36941 31-227).
T6 construct: also called LT β R; LTβR
Kind of assay: ELISA, protein coated at 1 µg/mL. As for the experimental part: as §1

Another assay concerns the target T7, Ly052.
T7 chain: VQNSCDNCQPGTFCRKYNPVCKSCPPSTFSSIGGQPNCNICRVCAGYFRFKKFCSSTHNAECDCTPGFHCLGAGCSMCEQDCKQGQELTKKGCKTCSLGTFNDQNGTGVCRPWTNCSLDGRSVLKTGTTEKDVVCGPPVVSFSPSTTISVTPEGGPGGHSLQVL
In words: ELISA, CD137 protein coated, clone 3712 titrated; flat curve (see non_binding). The method, then:
For the data shown in FIGS. 16C-D, chimeric CD137 receptor protein samples were diluted in DPBS to 5 μg/mL and then coated onto an ELISA plate (Corning, Catalog number: 9018, high binding) at 50 μL (0.25 μg) per well, and incubated at 4° C. overnight. The plate was decanted and washed once; assay diluent was added at 200 μL/well. After a 1-hour incubation at room temperature, the plate was washed with PBST one time. […] The plate was incubated 1 hour at room temperature and then washed three times with PBST. Goat anti-human IgG-H+L HRP-conjugated at 1:100,000 dilution or goat anti-mouse IgG (H+L) secondary antibody, HRP, 10 at 1:50,000 dilution was added to the plate at 100 μL/well. The plate was incubated 1 hour at room temperature followed by washing with PBST four times. The TMB substrate solution was added 100 μL/well. The color was permitted to develop for 15 minutes and then 100 μL/well 2N H2SO4 was added to terminate the reaction. Absorbance at 450 nm and 620 nm was determined by a Tecan F200 Pro reader.

Sequence of human CD40 protein (P25942 21-193 limits assumed): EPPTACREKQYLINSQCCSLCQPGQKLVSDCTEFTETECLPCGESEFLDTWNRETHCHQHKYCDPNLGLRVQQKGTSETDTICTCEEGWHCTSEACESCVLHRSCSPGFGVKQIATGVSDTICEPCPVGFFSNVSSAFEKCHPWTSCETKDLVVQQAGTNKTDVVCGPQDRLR
T6 sequence (P36941 31-227 limits assumed): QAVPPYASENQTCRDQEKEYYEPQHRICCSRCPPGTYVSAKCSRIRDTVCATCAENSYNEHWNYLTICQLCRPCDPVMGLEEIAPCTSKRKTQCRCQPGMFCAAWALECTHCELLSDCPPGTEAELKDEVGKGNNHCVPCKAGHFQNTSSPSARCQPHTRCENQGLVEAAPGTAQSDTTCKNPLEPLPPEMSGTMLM

B1: Clone 3712-IgG1v (IgG1v/kappa) (antibody)
heavy: QVQLVQSGAEVKKPGASVKVSCKASGYTFAGFEMHWVRQAPGQGLEWMGAIDPKTGGTDYNQKFKDRVTMTRDTSISTAYMELSRLRSDDTAVYYCARDLGYFDVWGQGTLVTVSSASTKGPSVFPLAPSSKSTSGGTAALGCLVKDYFPEPVTVSWNSGALTSGVHTFPAVLQSSGLYSLSSVVTVPSSSLGTQTYICNVNHKPSNTKVDKKVEPKSCDKTHTCPPCPAPELLGPSVFLFPPKPKDTLMISRTPEVTCVVVDVEHEDPEVKFNWYVDGVEVHNAKTKPREEQYNSTYRVVSVLTVLHQDWLNGKEYKCKVSNKALPAPIEKTISKAKGQPREPQVYTLPPSREEMTKNQVSLTCLVKGFYPSDIAVEWESNGQPENNYKTTPPVLDSDGSFFLYSKLTVDKSRWQQGNVFSCSVMHEALHNHYTQKSLSLSPGK
light: DIQMTQSPSSLSASVGDRVTITCRASQDIRSNLNWYQQKPGGAVKLLIYYTSRLHSGVPSRFSGSGSGTDYTLTISSLQPEDFATYFCQQSEKLPRTFGGGTKVEIRRTVAAPSVFIFPPSDEQLKSGTASVVCLLNNFYPREAKVQWKVDNALQSGNSQESVTEQDSKDSTYSLSSTLTLSKADYEKHKVYACEVTHQGLSSPVTKSFNRGEC
notes: copies: 2 + 2
In general, EC50 refers to the concentration that produces a half-maximal response. Low values mean higher potency in that assay, high ones lower potency in that assay. Regarding B1, the binding result is “no binding (tested: 10 µg/mL and 1 µg/mL)” with mouse CD137 protein; “no binding (tested: 10 µg/mL and 1 µg/mL)” with human VISTA protein; “no binding (tested: 10 µg/mL and 1 µg/mL)” in the assay with human B7-H3 protein; “no binding (tested: 10 µg/mL and 1 µg/mL)” with human GITR protein; “no binding (tested: 10 µg/mL and 1 µg/mL)” in the assay with human CD40 protein; “no binding (tested: 10 µg/mL and 1 µg/mL)” with human CD20 protein. In addition, the binding result was “no binding (tested: 10 µg/mL and 1 µg/mL)” with human CD19 protein; “no binding (tested: 10 µg/mL and 1 µg/mL)” with human CD27 protein; “no binding (tested: 10 µg/mL and 1 µg/mL)” with human LTBR protein. Moreover, in the assay with Ly052, it took 0.749 ng/mL to reach a half-maximal effect (EC50).
